According to the Immune Epitope Database (IEDB):

Tests used:
HLA-B*15:02 = experiment: IEDB peptide-MHC binding, purified MHC/competitive/fluorescence; filed as Kd, often an IC50 or EC50 that approximates it; ≥ and ≤ were set here for values at or beyond the usual limits of such assays; details: source organism: Homo sapiens
HLA-B*46:01 = experiment: as above; details: source organism: Homo sapiens
HLA-A*02:01 [1] = experiment: IEDB peptide-MHC binding, purified MHC/competitive/radioactivity; filed as Kd, often an IC50 or EC50 that approximates it; ≥ and ≤ were set here for values at or beyond the usual limits of such assays; details: source organism: Homo sapiens
HLA-A*02:07 = experiment: as above; details: source organism: Homo sapiens
HLA-A*29:02 [2] = experiment: as above; details: source organism: Homo sapiens
HLA-B*57:01 [3] = experiment: as above; details: source organism: Homo sapiens
HLA-B*58:01 [4] = experiment: as above; details: source organism: Homo sapiens
HLA-A*02:01 [5] = experiment: IEDB peptide-MHC binding, purified MHC/direct/fluorescence; filed as Kd, often an IC50 or EC50 that approximates it; ≥ and ≤ were set here for values at or beyond the usual limits of such assays
HLA-A*02:06 = experiment: as above; details: source organism: Geobacillus sp. WCH70
HLA-A*02:12 = experiment: as above; details: source organism: Geobacillus sp. WCH70
HLA-A*02:03 = experiment: IEDB peptide-MHC binding, purified MHC/competitive/fluorescence; filed as Kd, often an IC50 or EC50 that approximates it; ≥ and ≤ were set here for values at or beyond the usual limits of such assays
HLA-A*01:01 [6] = experiment: IEDB peptide-MHC binding, purified MHC/direct/fluorescence; filed as Kd, often an IC50 or EC50 that approximates it; ≥ and ≤ were set here for values at or beyond the usual limits of such assays; details: source organism: Camelpox virus M-96
HLA-A*26:03 = experiment: as above; details: source organism: Variola virus
HLA-A*68:02 [7] = experiment: as above; details: source organism: Camelpox virus M-96
HLA-A*69:01 = experiment: as above; details: source organism: Camelpox virus M-96
HLA-B*08:03 = experiment: as above; details: source organism: Variola virus
HLA-B*15:01 = experiment: as above; details: source organism: Camelpox virus M-96
HLA-B*15:17 = experiment: as above; details: source organism: Camelpox virus M-96
HLA-B*18:01 [8] = experiment: as above; details: source organism: Camelpox virus M-96
HLA-B*27:05 = experiment: as above; details: source organism: Camelpox virus M-96
HLA-B*48:01 = experiment: as above; details: source organism: Camelpox virus M-96
HLA-B*57:01 [9] = experiment: as above; details: source organism: Camelpox virus M-96
HLA-B*58:01 [10] = experiment: as above; details: source organism: Camelpox virus M-96
HLA-A*11:01 [11] = experiment: IEDB peptide-MHC binding, purified MHC/competitive/fluorescence; filed as Kd, often an IC50 or EC50 that approximates it; ≥ and ≤ were set here for values at or beyond the usual limits of such assays; details: source organism: Vaccinia virus Copenhagen
HLA-A*30:01 = experiment: as above; details: source organism: Vaccinia virus Copenhagen
HLA-B*07:02 [12] = experiment: as above; details: source organism: Vaccinia virus Copenhagen
HLA-B*08:01 [13] = experiment: as above; details: source organism: Vaccinia virus Copenhagen
HLA-A*01:01 [14] = experiment: IEDB peptide-MHC binding, purified MHC/competitive/fluorescence; ≥ and ≤ were set here for values at or beyond the usual limits of such assays; details: source organism: Mus musculus
HLA-A*02:01 [15] = experiment: as above; details: source organism: Mus musculus
HLA-A*03:01 = experiment: as above; details: source organism: Mus musculus
HLA-A*11:01 [16] = experiment: as above; details: source organism: Mus musculus
HLA-A*24:02 = experiment: as above; details: source organism: Mus musculus
HLA-A*25:01 = experiment: as above; details: source organism: Mus musculus
HLA-A*29:02 [17] = experiment: as above; details: source organism: Mus musculus
HLA-A*31:01 = experiment: as above; details: source organism: Mus musculus
HLA-A*68:02 [18] = experiment: as above; details: source organism: Mus musculus
HLA-B*07:02 [19] = experiment: as above; details: source organism: Mus musculus
HLA-B*08:01 [20] = experiment: as above; details: source organism: Mus musculus
HLA-B*14:02 = experiment: as above; details: source organism: Mus musculus
HLA-B*18:01 [21] = experiment: as above; details: source organism: Mus musculus
HLA-B*35:01 = experiment: as above; details: source organism: Mus musculus
HLA-B*37:01 = experiment: as above; details: source organism: Mus musculus
HLA-B*40:02 = experiment: as above; details: source organism: Mus musculus
HLA-B*44:03 = experiment: as above; details: source organism: Mus musculus
HLA-B*51:01 = experiment: as above; details: source organism: Mus musculus
HLA-B*53:01 = experiment: as above; details: source organism: Mus musculus
HLA-B*58:01 [22] = experiment: as above; details: source organism: Mus musculus

Question: Which results are given for FAFVTDNTY?
Answer: Kd (HLA-B*15:02): 0.00255 µM; Kd (HLA-B*46:01): 0.0131 µM; Kd (HLA-A*02:01 [1]): ≥ 78.1 µM; Kd (HLA-A*02:07): ≥ 77.7 µM; Kd (HLA-A*29:02 [2]): 0.0441 µM; Kd (HLA-B*57:01 [3]): 0.106 µM; Kd (HLA-B*58:01 [4]): 0.084 µM

Question: What does the source list for GLPESTPSL?
Answer: Kd (HLA-A*02:01 [5]; source organism: Bacillus cereus): 0.0121 µM; Kd (HLA-A*02:06): 0.014 µM; Kd (HLA-A*02:12): 0.12 µM; Kd (HLA-A*02:03; source organism: Bacillus anthracis str. A0488): 0.0214 µM

Question: For NRLKPRDFK, which Kd (HLA-A*01:01 [6]) is on record?
Answer: ≥ 20 µM

Question: And the Kd (HLA-A*02:01 [5]; source organism: Camelpox virus M-96)?
Answer: ≥ 20 µM

Question: What about the Kd (HLA-A*26:03) of the same sequence?
Answer: ≥ 20 µM

Question: And the Kd (HLA-A*68:02 [7])?
Answer: ≥ 20 µM

Question: What about the Kd (HLA-A*69:01) of the same sequence?
Answer: ≥ 20 µM

Question: And the Kd (HLA-B*08:03)?
Answer: ≥ 20 µM

Question: What about the Kd (HLA-B*15:01) of the same sequence?
Answer: ≥ 20 µM

Question: What about the Kd (HLA-B*15:17) of the same sequence?
Answer: ≥ 20 µM

Question: What about the Kd (HLA-B*18:01 [8]) of the same sequence?
Answer: ≥ 20 µM

Question: What about the Kd (HLA-B*27:05) of the same sequence?
Answer: 1.79 µM

Question: What about the Kd (HLA-B*48:01) of the same sequence?
Answer: ≥ 20 µM

Question: What about the Kd (HLA-B*57:01 [9]) of the same sequence?
Answer: ≥ 20 µM

Question: And the Kd (HLA-B*58:01 [10])?
Answer: ≥ 20 µM

Question: And the Kd (HLA-A*02:03; source organism: Vaccinia virus Copenhagen)?
Answer: ≥ 20 µM

Question: And the Kd (HLA-A*11:01 [11])?
Answer: ≥ 20 µM

Question: What about the Kd (HLA-A*30:01) of the same sequence?
Answer: ≥ 20 µM

Question: And the Kd (HLA-B*07:02 [12])?
Answer: 3 µM

Question: And the Kd (HLA-B*08:01 [13])?
Answer: 3 µM

Question: Which results are given for VALFSSCPVAY?
Answer: IC50 (HLA-A*01:01 [14]): ≥ 20 µM; IC50 (HLA-A*02:01 [15]): ≥ 20 µM; IC50 (HLA-A*03:01): ≥ 20 µM; IC50 (HLA-A*11:01 [16]): ≥ 20 µM; IC50 (HLA-A*24:02): ≥ 20 µM; IC50 (HLA-A*25:01): ≥ 20 µM; IC50 (HLA-A*29:02 [17]): 0.0381 µM; IC50 (HLA-A*31:01): ≥ 20 µM; IC50 (HLA-A*68:02 [18]): ≥ 20 µM; IC50 (HLA-B*07:02 [19]): ≥ 20 µM; IC50 (HLA-B*08:01 [20]): ≥ 20 µM; IC50 (HLA-B*14:02): ≥ 20 µM; IC50 (HLA-B*18:01 [21]): ≥ 20 µM; IC50 (HLA-B*35:01): 0.0138 µM; IC50 (HLA-B*37:01): ≥ 20 µM; IC50 (HLA-B*40:02): ≥ 20 µM; IC50 (HLA-B*44:03): ≥ 20 µM; IC50 (HLA-B*51:01): ≥ 20 µM; IC50 (HLA-B*53:01): ≥ 20 µM; IC50 (HLA-B*58:01 [22]): ≥ 20 µM
